Reference: article PMC5269673

Tests used:
Gramicidin A [1] = experiment: single-channel recording in planar lipid bilayers; gA added to both compartments of a painted DOPC bilayer; conductive channel = gA dimer; 10 mmol/L HEPES, 1 mol/L KCl, pH 7.4, 23 ± 2 °C, -100 mV; without and with AEA (up to 3 umol/L) or 3 umol/L 2-AG
Gramicidin A [2] = experiment: single-channel recording in planar lipid bilayers; gA added to both compartments of a painted DPhPC bilayer; conductive channel = gA dimer; 10 mmol/L HEPES, 1 mol/L KCl, pH 7.4, 23 ± 2 °C, -100 mV; without and with AEA

fold increase of channel appearance frequency f (f/f control = k1/k1,control) with 3 umol/L AEA over no AEA (Gramicidin A [1]): 7.2 fold
fold increase of open channel lifetime tau (tau control/tau = k-1/k-1,control) with 3 umol/L AEA over no AEA (Gramicidin A [1]): 1.8 fold
fold increase of channel appearance frequency f (f/f control = k1/k1,control) with 3 umol/L AEA over no AEA (Gramicidin A [2]): 4 fold
fold increase of open channel lifetime tau (tau control/tau = k-1/k-1,control) with 3 umol/L AEA over no AEA (Gramicidin A [2]): 1.4 fold
Substance: Gramicidin A (peptide)
